Experimental data: patent publication US20200055958A1

Biological target: VEGF-A (human) (UniProt P15692)
Experiment: cell-based or functional assay

Sequence of VEGF-A (human) (P15692 other isoform, or with tags, fused parts or gaps limits assumed): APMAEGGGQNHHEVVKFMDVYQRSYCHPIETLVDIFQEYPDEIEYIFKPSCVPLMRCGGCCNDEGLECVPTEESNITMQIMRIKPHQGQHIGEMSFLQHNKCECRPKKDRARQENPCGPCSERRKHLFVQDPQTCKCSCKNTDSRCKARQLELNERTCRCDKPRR

## positive control, VEGFR1 ECD D2 and VEGFR2 ECD D3 fused C-terminally with IgG1 Fc fragment (Fc fusion)
  IC50, VEGF-dependent HUVEC cell growth assay (MTS): 0.19 nM
